Measured values from patent US20240034783A1 (SOTIO BIOTECH A S, published 2024).
Values belong to the binder of their own block, whether it stands above or below them.

Tests used:
human CLDN18.2 [1] = target: T1, human CLDN18.2 (human); assay: flow cytometry titration, HEK293T cells overexpressing CLDN18.2
T1 construct: also called huCLDN18.2; hCLDN18.2
Description: (§1) In order to have a more homogenous cell population, the cells were sorted by FACS to select only cells with a the higher CLDN18.2 expression. […] After wash in FACS buffer, the cells were incubated with the PE-labeled Fey specific IgG goat anti-human secondary antibody (eBioscience) on ice for 30 min. After wash, the stained cells were resuspended in FACS buffer, analyzed and sorted by a FACSAria™ instrument, separating medium expressing cells from high expressing cells (FIG. 2B). […] HEK293T cells overexpressing CLDN18.2 or CLDN18.1 were generated as described in Example 3 and the expression of CLDN18.2 was analyzed by flow cytometry (FIG. 3).
(§2) A PE-coupled secondary anti-human IgG antibody was added to the cells for additional 30 min at 4° C. after washes with the FC buffer, followed by further washes with FC buffer. The cells were then resuspended in 100 μl FC buffer and measured with a FACSCalibur™ cell analyzer (BD Biosciences, USA).

human CLDN18.2 [2] = target: T1, human CLDN18.2; assay: ELISA on CLDN18.2-lipoparticles
Description: (§3) CLDN18.2-lipoparticles and Null-lipoparticles (without antigens) were used to coat 96-well plates at a final concentration of 10 U/ml in 100 mM sodium carbonate, pH 9.6. Upon washing with PBS/0.05% Tween-20 (PBS-T) and blocking with PBS-T/3% BSA for at least 1 h at 37° C., 1:3 serial dilutions of hCl antibodies with a starting concentration of 2 μg/ml were added and incubated for at least 1 h at 37° C.

human CLDN18.2 [3] = target: T1, human CLDN18.2; assay: flow cytometry; % positive tumor cells divided by % positive healthy stomach cells
Description: Two Balb/c mice were implanted subcutaneously with 1×10⁶ A549 cells expressing CLDN18.2 in 100 μl of 50% Matrigel and tumors growth was monitored over a few weeks until the tumor reached the desired size between 150-450 mm 3. Healthy stomach tissue and tumor tissue was collected for FC analysis. The collected tissues were cut into small pieces and digested with the Miltenyi tumor dissociation kit (MACS Miltenyi Biotec, Germany). Tissue pieces were incubated with dissociation buffer (prepared according to the manufacturer instruction) in 6 well plates for 30 min in 37° C. under permanent gentle rocking motion. Samples were resuspended and strained through a 70 μm cell strainer (Corning, USA) followed by a wash with 20 ml FC buffer (PBS+2% FBS). Cell suspensions were centrifuged (5 min at 400 g for 4° C.) and the supernatants were discarded. If needed, cell suspensions were passed through a strainer and centrifuged repeatedly and pellets resuspended in 5 ml of red blood cell lysis buffer (Biolegend, USA), incubated on ice for 4 min. After incubation, 25 ml of PBS was added, and the suspensions were centrifuged again (5 min at 400 g for 4° C.). Pellets were resuspended in FC buffer (0.5-3 ml based on pellets). Equal number of cells were transferred into 96 well plates and further processed for FC analysis. The cells in the plates were washed with PBS and centrifuged (400 g for 2 min at 4° C.). […] After incubation, cells were washed twice in PBS and centrifuged (400 g for 2 min at 4° C.). Pellets were resuspended in 50 μl/well of secondary staining mix (PBS+PE-labelled anti-human antibody) (Thermo Fisher Scientific, USA), and incubated 25 min on ice. After incubation cells were washed again twice in PBS. Pellets were resuspended in 100 μl of PBS containing DAPI. Plates were kept on ice until FC analysis. For FC analysis, live cells were separated from dead cells by forward scatter and DAPI stain. Live cells were then gated for the presence of cytokeratin ([…]) and bound CLDN18.2 antibodies (PE positive cells).

human CLDN18.2 [4] = target: T1, human CLDN18.2; assay: flow cytometry titration, PA-TU-8988S-High cells
Description: as §1, §2

human CLDN18.2 [5] = target: T1, human CLDN18.2; assay: ELISA on CLDN18.2-lipoparticles, after Asn-deamidation stress test
Description: The stressed and non-stressed sample was stored at −80° C. Asn-deamidation and Asp-isomerization of the samples was analyzed by strong cation exchange (SCX) chromatography. Deamidation of Asn leads in a SCX chromatogram to an increase of the peak area before the main peak (bM), while Asp-isomerization leads in a SCX chromatograph to an increase of the peak area after the main peak (aM) (Du et al. 2012). SCX chromatography was performed on a MAbPac SCX-10 Column (ThermoFisher Scientific, Basel, CH), with buffer A at pH 4.0 and buffer B at pH 11.0. The flow rate was of 0.5 ml/min with a pH gradient of 30-80% buffer B. 10 μg of the sample in 20 μl of buffer A was injected into the column. Sample detection was performed by protein absorbance at 280 nm. […] NS motifs are the second most liable motifs for deamidation.
as §3

- EC50 (human CLDN18.2 [1]): 0.388 mg/L
- Max MFI (human CLDN18.2 [1]): 1970 MFI
- EC50 (human CLDN18.2 [2]): 0.0515 mg/L
- Ratio tumor/stomach (Average) (human CLDN18.2 [3]): 0.88
- Ratio tumor/stomach (Mouse 1) (human CLDN18.2 [3]): 2.53
- Ratio tumor/stomach (Mouse 2) (human CLDN18.2 [3]): 0.29
- EC50 (human CLDN18.2 [4]): 0.508 mg/L
- Max MFI (human CLDN18.2 [4]): 1050 MFI
B1: IMAB362 (antibody, human IgG1, kappa, V domains shown)
VH: QVQLQQPGAELVRPGASVKLSCKASGYTFTSYWINWVKQRPGQGLEWIGNIYPSDSYTNYNQKFKDKATLTVDKSSSTAYMQLSSPTSEDSAVYYCTRSWRGNSFDYWGQGTTLTVSS
VL: DIVMTQSPSSLTVTAGEKVTMSCKSSQSLLNSGNQKNYLTWYQQKPGQPPKLLIYWASTRESGVPDRFTGSGSGTDFTLTISSVQAEDLAVYYCQNDYSYPFTFGSGTKLEIKR
notes: Control, chimeric IgG1, synthesized from the published chains; also called Claudiximab; Zolbetuximab

- EC50 (human CLDN18.2 [5]): 0.0951 mg/L
- fold change of EC50 against non-stressed IMAB362 (human CLDN18.2 [5]): 1.8 fold
B2: IMAB362 after the Asn-deamidation stress test (antibody, human IgG1, kappa, V domains shown)
VH: B1 VH
VL: B1 VL
modifications: partly deamidated Asn after 1 week at pH 8.0 and 40 °C; sites not determined (NS motif at LC CDR1 aa 31-32 named as liable); partly deamidated Asn after 1 week at pH 8.0 and 40 °C; sites not determined (NS motif at HC CDR3 aa 103-104 named as liable)
notes: also called stressed IMAB362; deamidated IMAB362
